From patent publication US20250115677A1, “Anti-CEA Antibody Drug Conjugates and Methods of Use” (BeiGene Switzerland GmbH, priority 2022, published 2025)

T1: CEA (Homo sapiens, UniProt P06731)
T1 sequence (P06731 35-676): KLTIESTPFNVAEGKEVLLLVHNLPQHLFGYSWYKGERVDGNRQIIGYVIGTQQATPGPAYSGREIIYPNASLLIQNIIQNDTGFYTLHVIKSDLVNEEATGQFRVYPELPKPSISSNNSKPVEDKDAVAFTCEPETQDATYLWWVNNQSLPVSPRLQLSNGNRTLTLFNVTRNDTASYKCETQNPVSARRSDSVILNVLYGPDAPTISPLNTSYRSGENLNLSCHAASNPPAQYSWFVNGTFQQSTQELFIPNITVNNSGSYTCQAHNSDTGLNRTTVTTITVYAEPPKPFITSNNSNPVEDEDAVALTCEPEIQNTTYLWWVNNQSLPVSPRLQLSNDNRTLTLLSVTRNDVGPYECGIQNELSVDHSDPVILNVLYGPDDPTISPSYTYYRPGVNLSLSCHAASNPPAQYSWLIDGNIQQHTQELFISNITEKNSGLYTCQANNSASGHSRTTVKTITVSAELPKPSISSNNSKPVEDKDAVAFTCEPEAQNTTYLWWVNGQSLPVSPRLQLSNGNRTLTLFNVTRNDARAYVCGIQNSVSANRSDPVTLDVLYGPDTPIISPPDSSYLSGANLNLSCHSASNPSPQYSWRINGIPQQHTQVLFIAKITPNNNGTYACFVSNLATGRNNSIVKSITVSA

T2: CEA variant (CEA-v) (human, UniProt P06731 35-687)
T2 construct: Splice-variant construct made by overlap PCR of CEA AA 1-78 and AA 398-687, C-terminal 6xHis; also called sCEA-v
T2 sequence: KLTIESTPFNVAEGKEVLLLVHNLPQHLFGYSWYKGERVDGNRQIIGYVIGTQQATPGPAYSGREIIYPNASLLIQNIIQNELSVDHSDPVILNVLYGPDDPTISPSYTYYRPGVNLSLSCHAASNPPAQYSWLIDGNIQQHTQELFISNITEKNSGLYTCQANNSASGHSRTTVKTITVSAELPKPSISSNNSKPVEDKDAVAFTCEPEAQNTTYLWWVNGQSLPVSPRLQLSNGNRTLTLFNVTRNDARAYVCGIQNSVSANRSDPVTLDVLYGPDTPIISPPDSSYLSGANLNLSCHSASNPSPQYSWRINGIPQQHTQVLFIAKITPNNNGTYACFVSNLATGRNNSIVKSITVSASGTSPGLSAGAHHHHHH

T3: chimeric construct (CHIM) (human)
T3 construct: CEACAM6 AA 1-273 joined to the membrane-peripheral region containing domain B3 of CEA (AA 596-687), C-terminal 6xHis; also called chimeric CEA
T3 chain: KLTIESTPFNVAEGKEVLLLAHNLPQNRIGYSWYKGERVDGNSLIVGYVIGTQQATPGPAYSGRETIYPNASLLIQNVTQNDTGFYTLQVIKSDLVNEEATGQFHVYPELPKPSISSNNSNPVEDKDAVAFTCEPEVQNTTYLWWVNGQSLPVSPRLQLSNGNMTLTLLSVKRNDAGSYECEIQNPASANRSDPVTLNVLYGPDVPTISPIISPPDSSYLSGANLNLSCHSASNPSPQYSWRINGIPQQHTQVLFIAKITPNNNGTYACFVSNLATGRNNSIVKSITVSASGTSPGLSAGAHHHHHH

B1: BGA7592-1F: "BGA7592-1F (N54Q, N59S, S61 A (VH))"; humanized, "no glycosylation sites but had a high expression level" (antibody, V domains shown)
VH: QVQLVQSGAEVKKPGASVKVSCKASGYIFTSYWLHWVRQAPGQGLEWIGYINPQTGYTSYAQKFQGRVTMTRDTSTSTVYMELSSLRSEDTAVYYCAREYGNYNYPLDYWGQGTLVTVSS
VL: DIQMTQSPSSLSASVGDRVTITCRASENIYGYLAWYQQKPGKVPKLLIYNAKNLVEGVPSRFSGSGSGTDFTLTISSLQPEDVATYYCQHHYGTPYTFGQGTKVEIK
B2: BGA7592 (antibody, V domains shown)
VH: QVQLQQSGAELAKSGASVKMSCKASGYIFTSYWLHWVKQRPGQGLEWIGYINPNTGYTNYSQKFKDKATLTADKSSSTAYMQLSSLTSEDSAVYYCAREYGNYNYPLDYWGQGTSVTVSS
VL: DIQMTQSPASLSASVGETVTITCRASENIYGYLAWYQQKQGKSPQLLVFNAKNLVEGVPSRFSGSGSGTQFSLKINSLQPEDFGSYYCQHHYGTPYTFGGGTKLEIK
notes: Murine monoclonal antibody purified from hybridoma supernatant; also called murine anti-CEA antibody BGA7592

Assays:
CEA = molecular target: T1, CEA; assay: Binding of humanized and PTM-engineered BGA7592 variants compared to BGA7592-1
Source text: Using BGA7592-1, an additional number of single or multiple amino acid changes were made, converting the human residues in framework regions of VH and VL to corresponding murine germline residues, which include V68A, R72A and V79A in VH and V43S in VL, respectively. This resulted BGA7592-2 (V68A, R72A in VH), BGA7592-3 (V79A in VH), BGA7592-4 (V68A, R72A, V79A in VH), BGA7592-5 (V43S in VL), BGA7592-6 (V68A, R72A in VH, and V43S in VL), BGA7592-7 (V79A in VH, V43S in VL) and BGA7592-8 (V68A, R72A, V79A, in VH and V43S in VL). All antibodies which contained modifications had similar binding activities to BGA7592-1, and none of the changes abolished binding.
In order to remove post-translational modification (PTM) sites, further engineering was made by introducing mutations in CDRs and framework regions based on the BGA75921 sequence, which include N52T, N54Q, N59S, N102G, N104Q and S61A amino acid changes in the VH region. […] While maintaining specificity, amino acid compositions and expression levels were also considered. All humanization mutations were made using primers containing mutations at specific positions and a site directed mutagenesis kit (Cat. FM 111-02, TransGen, Beijing, China). The desired mutations were verified by sequence analysis.

CEA variant (CEA-v) = molecular target: T2, CEA variant (CEA-v); assay: SPR (BIAcore T-200); antibody captured by anti-murine IgG, antigen flowed
Method: (§1) Briefly, anti-murine IgG antibody was immobilized on an activated CM5 biosensor chip (Cat. No. BR100530, GE Life Sciences). Purified murine antibodies were flowed over the chip surface and captured by anti-murine IgG antibody. […] The equilibrium dissociation constant (KD) was calculated as the ratio koff/kₒₙ.

[1] = molecular target: T3, chimeric construct (CHIM); assay: as above
Method: as §1

Row | Molecule | binding affinities compared to BGA7592-1 (CEA) | Kd (CEA variant (CEA-v)) [nM] | Kd [1] [nM]
1 | B1 | significantly reduced binding affinities | – | –
2 | B2 | – | 150 | 120
